Read-outs that look alike come from different tables or passages of the source.
Key:
recombinant human IL-6 [1] = target: T1, recombinant human IL-6 (human, UniProt P05231 30-212, labeled with radioactive iodine); test: radioiodinated IL-6 on peptide array
T1 construct: Labeled probe in solution, added to wells that carry the synthetic peptides; also called IL-6 ligand; Interleukin-6
Method: Synthetic peptide arrays were constructed in 96-well microtiter plates in accordance with the method set forth in WO 91/02714 (Saxinger), and used to test the binding of recombinant human IL-6 that had been labeled with radioactive iodine (radiolabeling by standard methods). After incubating the radiolabeled IL-6 ligand in a well with each synthetic peptide, a washing step was performed to remove unbound label, and the relative level of radioactivity remaining in each well of the plate was evaluated to determine the relative affinity of each peptide for IL-6 ligand.

recombinant human IL-6 [2] = target: T1, recombinant human IL-6; test: radioiodinated IL-6 on peptide array; remark: listed apart in the source

Row | Binder | Counts/minute bound (recombinant human IL-6 [1]) [counts/minute] | Counts/minute bound (recombinant human IL-6 [2]) [counts/minute]
1 | SLTTKAVLLVRKFQNS [Peptide B22] | 12600 | 
2 | SLTSDTLYMVRMAAYTDEGGKDGP [Peptide E59] |  | 1270
